# Patent US20240182553A1 (NANJING GENSCRIPT BIOTECH, published 2024)
# T1: Ang2 protein (R&D system) (UniProt O15123 19-496)
# T1 sequence (looked up): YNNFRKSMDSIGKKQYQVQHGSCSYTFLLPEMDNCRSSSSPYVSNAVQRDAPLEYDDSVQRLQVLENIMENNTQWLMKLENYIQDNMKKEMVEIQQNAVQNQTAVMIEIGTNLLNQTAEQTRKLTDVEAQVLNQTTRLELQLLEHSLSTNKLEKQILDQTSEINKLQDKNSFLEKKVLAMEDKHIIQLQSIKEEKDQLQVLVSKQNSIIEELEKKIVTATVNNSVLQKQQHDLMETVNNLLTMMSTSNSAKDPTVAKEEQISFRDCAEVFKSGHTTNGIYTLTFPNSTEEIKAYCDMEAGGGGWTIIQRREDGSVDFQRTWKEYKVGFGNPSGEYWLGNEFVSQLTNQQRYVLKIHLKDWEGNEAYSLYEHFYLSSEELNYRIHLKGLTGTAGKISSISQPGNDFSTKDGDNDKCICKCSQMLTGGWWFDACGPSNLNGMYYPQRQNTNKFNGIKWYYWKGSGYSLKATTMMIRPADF
# Target: T1, Ang2 protein (R&D system)
# Experiment: cell-based or functional assay
Binder,"EC50 (phospho-Akt Ser473 HTRF dose-response, HUVEC + Ang2) [nM]","Span (phospho-Akt Ser473 HTRF dose-response, HUVEC + Ang2)"
"7F10B2-VL3-vegfr-VH3 (bispecific antibody, human IgG4 S228P, kappa) heavy: not shown light: DIQMTQSPSSLSASVGDRVTITCKASQSVSNDVAWYQQKPGKAPKLLIYYASNRFTGVPSRFSGSGSGTDFTLTISSLQPEDFATYYCQQDYSSRTFGGGTKVEIKRTVAAPSVFIFPPSDEQLKSGTASVVCLLNNFYPREAKVQWKVDNALQSGNSQESVTEQDSKDSTYSLSSTLTLSKADYEKHKVYACEVTHQGLSSPVTKSFNRGECESKYGPPSPPSPSDTGRPFVEMYSEIPEIIHMTEGRELVIPCRVTSPNITVTLKKFPLDTLIPDGKRIIWDSRKGFIISNATYKEIGLLTCEATVNGHLYKTNYLTHRQTNTIIDVVLSPSHGIELSVGEKLVLNCTARTELNVGIDFNWEYPSSKHQHKKLVNRDLKTQSGSEMKKFLSTLTIDGVTRSDQGLYTCAASSGLMTKKNSTFVRVHEK",2.27,7460 HTRF ratio (665nm/620nm)
"hABTAA anti-Ang2 antibody (antibody, human IgG4 S228P, kappa, V domains shown) VH: QVQLQESGPGLVKPSETLSLTCAVSGYSITSDYAWNWIRQPPGKGLEWMGKISYSGKTDYNPSLKSRSTISRDTSKNQFSLKLSSVTAADTAVYYCARGNFEGAMDYWGQGTLVTVSS VL: DIQMTQSPSSLSASVGDRVTITCKASQSVSNDVAWYQQKPGKAPKLLIYYASNRYPGVPSRFSGSGSGTDFTLTISSLQPEDFATYYCQQDYSSPWTFGQGTKLEIKR",2.53,5590 HTRF ratio (665nm/620nm)
"hABTAA-VHvegfr-VL (bispecific antibody, human IgG4 S228P, kappa) heavy: not shown light: DIQMTQSPSSLSASVGDRVTITCKASQSVSNDVAWYQQKPGKAPKLLIYYASNRYPGVPSRFSGSGSGTDFTLTISSLQPEDFATYYCQQDYSSPWTFGQGTKLEIKRTVAAPSVFIFPPSDEQLKSGTASVVCLLNNFYPREAKVQWKVDNALQSGNSQESVTEQDSKDSTYSLSSTLTLSKADYEKHKVYACEVTHQGLSSPVTKSFNRGEC",883,14300 HTRF ratio (665nm/620nm)
"5F7D7-VH3-vegfr-VL5 (bispecific antibody, human IgG4 S228P, kappa) heavy: not shown light: DIQMTQSPSSLSASVGDRVTITCKASQSVSNDVAWYQQKPGKAPKLLIYFASNRYTGVPSRFSGSGYGTDFTFTISSLQPEDIATYFCQQDYSSPYTFGGGTKLEIKRTVAAPSVFIFPPSDEQLKSGTASVVCLLNNFYPREAKVQWKVDNALQSGNSQESVTEQDSKDSTYSLSSTLTLSKADYEKHKVYACEVTHQGLSSPVTKSFNRGEC",~2.12,7020 HTRF ratio (665nm/620nm)
"31E2D4-VH4-vegfr-VL1 (bispecific antibody, human IgG4 S228P, kappa) heavy: not shown light: DIQMTQSPSSLSASVGDRVTITCKASQSVSNDVAWYQQKPGKAPKLLIYYASNRYTGVPSRFSGSGSGTDFTLTISSLQPEDFATYYCQQDYSSPLTFGGGTKLEIKRTVAAPSVFIFPPSDEQLKSGTASVVCLLNNFYPREAKVQWKVDNALQSGNSQESVTEQDSKDSTYSLSSTLTLSKADYEKHKVYACEVTHQGLSSPVTKSFNRGEC",2.39,7380 HTRF ratio (665nm/620nm)
"hABTAA-VH-VLvegfr (bispecific antibody, human IgG4 S228P, kappa) heavy chain: not shown light chain fusion polypeptide (VEGF-trap at C' of LC): DIQMTQSPSSLSASVGDRVTITCKASQSVSNDVAWYQQKPGKAPKLLIYYASNRYPGVPSRFSGSGSGTDFTLTISSLQPEDFATYYCQQDYSSPWTFGQGTKLEIKRTVAAPSVFIFPPSDEQLKSGTASVVCLLNNFYPREAKVQWKVDNALQSGNSQESVTEQDSKDSTYSLSSTLTLSKADYEKHKVYACEVTHQGLSSPVTKSFNRGECESKYGPPSPPSPSDTGRPFVEMYSEIPEIIHMTEGRELVIPCRVTSPNITVTLKKFPLDTLIPDGKRIIWDSRKGFIISNATYKEIGLLTCEATVNGHLYKTNYLTHRQTNTIIDVVLSPSHGIELSVGEKLVLNCTARTELNVGIDFNWEYPSSKHQHKKLVNRDLKTQSGSEMKKFLSTLTIDGVTRSDQGLYTCAASSGLMTKKNSTFVRVHEK",3.25,5440 HTRF ratio (665nm/620nm)
"hABTAA-VH-vegfrVL (bispecific antibody, human IgG4 S228P, kappa) heavy chain: not shown light chain fusion polypeptide (VEGF-trap at N' of LC): SDTGRPFVEMYSEIPEIIHMTEGRELVIPCRVTSPNITVTLKKFPLDTLIPDGKRIIWDSRKGFIISNATYKEIGLLTCEATVNGHLYKTNYLTHRQTNTIIDVVLSPSHGIELSVGEKLVLNCTARTELNVGIDFNWEYPSSKHQHKKLVNRDLKTQSGSEMKKFLSTLTIDGVTRSDQGLYTCAASSGLMTKKNSTFVRVHEKGGGGSGGGGSGGGGSDIQMTQSPSSLSASVGDRVTITCKASQSVSNDVAWYQQKPGKAPKLLIYYASNRYPGVPSRFSGSGSGTDFTLTISSLQPEDFATYYCQQDYSSPWTFGQGTKLEIKRTVAAPSVFIFPPSDEQLKSGTASVVCLLNNFYPREAKVQWKVDNALQSGNSQESVTEQDSKDSTYSLSSTLTLSKADYEKHKVYACEVTHQGLSSPVTKSFNRGEC",4.36,6380 HTRF ratio (665nm/620nm)
"vegfr-5A7B9-VL1.1-VH3 (bispecific antibody, human IgG4 S228P, kappa) heavy: not shown light: SDTGRPFVEMYSEIPEIIHMTEGRELVIPCRVTSPNITVTLKKFPLDTLIPDGKRIIWDSRKGFIISNATYKEIGLLTCEATVNGHLYKTNYLTHRQTNTIIDVVLSPSHGIELSVGEKLVLNCTARTELNVGIDFNWEYPSSKHQHKKLVNRDLKTQSGSEMKKFLSTLTIDGVTRSDQGLYTCAASSGLMTKKNSTFVRVHEKGGGGSGGGGSGGGGSDIQMTQSPSSLSASVGDRVTITCKASQSVSNDVAWYQQKPGKAPKLLIYYASNRYTGVPSRFSGSGSGTDFTLTISSLQPEDFATYFCQQDYSSPLTFGGGTKLEIKRTVAAPSVFIFPPSDEQLKSGTASVVCLLNNFYPREAKVQWKVDNALQSGNSQESVTEQDSKDSTYSLSSTLTLSKADYEKHKVYACEVTHQGLSSPVTKSFNRGEC",4.72,7740 HTRF ratio (665nm/620nm)
"7F10B2-VH3-vegfr-VL3 (bispecific antibody, human IgG4 S228P, kappa) heavy: not shown light: DIQMTQSPSSLSASVGDRVTITCKASQSVSNDVAWYQQKPGKAPKLLIYYASNRFTGVPSRFSGSGSGTDFTLTISSLQPEDFATYYCQQDYSSRTFGGGTKVEIKRTVAAPSVFIFPPSDEQLKSGTASVVCLLNNFYPREAKVQWKVDNALQSGNSQESVTEQDSKDSTYSLSSTLTLSKADYEKHKVYACEVTHQGLSSPVTKSFNRGEC",2.59,7330 HTRF ratio (665nm/620nm)
